Among the data in PMC6773438 are response values, retold here.

Sequences and labels used below:
B1: Ramazzottius varieornatus damage suppressor protein (Rv Dsup) [Ramazzottius varieornatus] / mononucleosomes reconstituted by salt dialysis with purified recombinant Drosophila core histones [Drosophila] (parent)
chain 1: MASTHQSSTEPSSTGKSEETKKDASQGSGQDSKNVTVTKGTGSSATSAAIVKTGGSQGKDSSTTAGSSSTQGQKFSTTPTDPKTFSSDQKEKSKSPAKEVPSGGDSKSQGDTKSQSDAKSSGQSQGQSKDSGKSSSDSSKSHSVIGAVKDVVAGAKDVAGKAVEDAPSIMHTAVDAVKNAATTVKDVASSAASTVAEKVVDAYHSVVGDKTDDKKEGEHSGDKKDDSKAGSGSGQGGDNKKSEGETSGQAESSSGNEGAAPAKGRGRGRPPAAAKGVAKGAAKGAAASKGAKSGAESSKGGEQSSGDIEMADASSKGGSDQRDSAATVGEGGASGSEGGAKKGRGRGAGKKADAGDTSAEPPRRSSRLTSSGTGAGSAPAAAKGGAKRAASSSSTPSNAKKQATGGAGKAAATKATAAKSAASKAPQNGAGAKKKGGKAGGRKRK
chain 2: not shown
chain 3: not shown
chain 4: not shown
chain 5: not shown

In one experiment the parent is B1. Kind of experiment: gel mobility shift. Conditions: Dsup/Nucleosome 3.0, mononucleosome, 5S rDNA sequence (147 bp), parent: 73.
For chain 1 R363E R364E R367E, the response was 47 % Bound.

Still in this experiment, the particulars now being: Dsup/Nucleosome 4.5, mononucleosome, 5S rDNA sequence (147 bp), parent: 95.
Consider chain 1 R363E R364E R367E, for which the response was 69 % Bound.
